Assay results: CN115724950A (YIDAO BIOTECHNOLOGY SUZHOU CO LTD, dated 2023)

How the values were obtained:
HPV 16 抗原 = biological target: T1, HPV 16 抗原 (Human papillomavirus type 16, UniProt P03101 1-505); assay: indirect ELISA, antigen coated at 1 μg/ml, supernatant diluted 20-fold
T1 sequence: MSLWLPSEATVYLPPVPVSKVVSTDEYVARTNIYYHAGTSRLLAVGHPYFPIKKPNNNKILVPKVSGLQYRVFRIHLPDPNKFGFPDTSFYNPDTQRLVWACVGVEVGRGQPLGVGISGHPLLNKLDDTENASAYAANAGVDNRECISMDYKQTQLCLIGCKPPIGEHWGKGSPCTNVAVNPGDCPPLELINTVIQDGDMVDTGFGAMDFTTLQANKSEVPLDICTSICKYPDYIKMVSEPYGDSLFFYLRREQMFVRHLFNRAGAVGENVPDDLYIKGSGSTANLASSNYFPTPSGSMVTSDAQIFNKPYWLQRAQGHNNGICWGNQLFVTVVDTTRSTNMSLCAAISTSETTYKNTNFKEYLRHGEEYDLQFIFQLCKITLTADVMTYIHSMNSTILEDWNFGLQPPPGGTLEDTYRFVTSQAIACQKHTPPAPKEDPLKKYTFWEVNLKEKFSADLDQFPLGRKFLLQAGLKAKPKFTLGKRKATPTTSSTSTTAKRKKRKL

HPV 18 抗原 = biological target: T2, HPV 18 抗原 (Human papillomavirus type 18, UniProt P06794 62-568); assay: as above
T2 sequence: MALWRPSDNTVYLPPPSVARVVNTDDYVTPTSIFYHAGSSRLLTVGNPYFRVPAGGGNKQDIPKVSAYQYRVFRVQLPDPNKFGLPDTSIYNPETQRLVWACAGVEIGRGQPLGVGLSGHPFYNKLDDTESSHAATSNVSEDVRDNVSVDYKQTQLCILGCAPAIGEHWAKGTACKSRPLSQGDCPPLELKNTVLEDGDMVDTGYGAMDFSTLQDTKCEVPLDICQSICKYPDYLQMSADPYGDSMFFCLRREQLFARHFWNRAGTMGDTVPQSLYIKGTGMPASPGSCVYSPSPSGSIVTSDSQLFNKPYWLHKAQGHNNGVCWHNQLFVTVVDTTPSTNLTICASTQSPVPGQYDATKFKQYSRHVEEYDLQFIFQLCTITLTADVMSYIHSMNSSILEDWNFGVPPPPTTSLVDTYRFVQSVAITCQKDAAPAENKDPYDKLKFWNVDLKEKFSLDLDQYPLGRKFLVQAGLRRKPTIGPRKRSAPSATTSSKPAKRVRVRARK

HPV 58 抗原 = biological target: T3, HPV 58 抗原 (Human papillomavirus type 58, UniProt P26535 27-524); assay: as above
T3 sequence: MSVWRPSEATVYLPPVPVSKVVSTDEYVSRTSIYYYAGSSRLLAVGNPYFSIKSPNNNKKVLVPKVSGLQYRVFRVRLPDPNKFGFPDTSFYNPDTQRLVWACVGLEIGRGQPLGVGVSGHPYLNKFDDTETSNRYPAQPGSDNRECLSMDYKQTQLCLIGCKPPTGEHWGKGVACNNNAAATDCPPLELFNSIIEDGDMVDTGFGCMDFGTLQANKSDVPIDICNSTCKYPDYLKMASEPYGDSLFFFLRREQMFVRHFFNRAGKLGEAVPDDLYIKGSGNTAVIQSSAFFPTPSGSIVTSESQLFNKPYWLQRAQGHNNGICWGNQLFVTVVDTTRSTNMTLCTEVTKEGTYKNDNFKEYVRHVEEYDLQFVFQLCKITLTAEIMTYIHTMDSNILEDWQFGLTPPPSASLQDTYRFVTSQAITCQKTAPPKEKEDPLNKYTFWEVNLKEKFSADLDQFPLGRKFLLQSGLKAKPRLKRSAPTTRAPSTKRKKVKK

HPV11 抗原 = biological target: T4, HPV11 抗原 (Human papillomavirus type 11, UniProt P04012 1-501); assay: as above
T4 sequence: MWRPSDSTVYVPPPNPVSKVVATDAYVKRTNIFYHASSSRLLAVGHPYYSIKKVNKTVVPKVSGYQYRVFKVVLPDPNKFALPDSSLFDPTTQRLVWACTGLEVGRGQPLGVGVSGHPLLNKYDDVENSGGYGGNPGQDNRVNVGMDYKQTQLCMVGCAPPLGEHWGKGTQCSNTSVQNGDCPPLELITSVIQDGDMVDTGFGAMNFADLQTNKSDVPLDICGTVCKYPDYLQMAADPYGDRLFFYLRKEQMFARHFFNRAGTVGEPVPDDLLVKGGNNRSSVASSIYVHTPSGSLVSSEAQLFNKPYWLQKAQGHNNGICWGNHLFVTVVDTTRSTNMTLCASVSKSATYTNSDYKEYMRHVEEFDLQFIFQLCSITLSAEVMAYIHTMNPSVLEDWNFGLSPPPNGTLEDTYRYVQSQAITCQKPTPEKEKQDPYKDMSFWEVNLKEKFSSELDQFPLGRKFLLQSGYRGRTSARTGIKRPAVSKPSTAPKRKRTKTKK

HPV 33 抗原 = biological target: T5, HPV 33 抗原 (Human papillomavirus type 33, UniProt P06416 1-499); assay: as above
T5 sequence: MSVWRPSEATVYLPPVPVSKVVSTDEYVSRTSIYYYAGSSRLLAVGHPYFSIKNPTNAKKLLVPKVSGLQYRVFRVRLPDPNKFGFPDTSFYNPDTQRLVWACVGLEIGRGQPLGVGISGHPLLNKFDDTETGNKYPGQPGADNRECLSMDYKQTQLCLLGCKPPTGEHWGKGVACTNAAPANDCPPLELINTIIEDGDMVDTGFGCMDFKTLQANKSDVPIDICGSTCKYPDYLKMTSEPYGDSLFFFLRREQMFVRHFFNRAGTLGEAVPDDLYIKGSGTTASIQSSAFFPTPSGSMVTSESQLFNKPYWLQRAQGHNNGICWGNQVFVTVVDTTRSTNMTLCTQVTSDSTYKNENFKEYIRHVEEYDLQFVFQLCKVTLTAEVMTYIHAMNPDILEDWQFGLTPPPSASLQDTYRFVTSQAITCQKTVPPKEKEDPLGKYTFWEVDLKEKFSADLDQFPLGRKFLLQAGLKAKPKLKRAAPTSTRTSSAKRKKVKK

HPV31 抗原 = biological target: T6, HPV31 抗原 (Human papillomavirus type 31, UniProt P17388 1-504); assay: as above
T6 sequence: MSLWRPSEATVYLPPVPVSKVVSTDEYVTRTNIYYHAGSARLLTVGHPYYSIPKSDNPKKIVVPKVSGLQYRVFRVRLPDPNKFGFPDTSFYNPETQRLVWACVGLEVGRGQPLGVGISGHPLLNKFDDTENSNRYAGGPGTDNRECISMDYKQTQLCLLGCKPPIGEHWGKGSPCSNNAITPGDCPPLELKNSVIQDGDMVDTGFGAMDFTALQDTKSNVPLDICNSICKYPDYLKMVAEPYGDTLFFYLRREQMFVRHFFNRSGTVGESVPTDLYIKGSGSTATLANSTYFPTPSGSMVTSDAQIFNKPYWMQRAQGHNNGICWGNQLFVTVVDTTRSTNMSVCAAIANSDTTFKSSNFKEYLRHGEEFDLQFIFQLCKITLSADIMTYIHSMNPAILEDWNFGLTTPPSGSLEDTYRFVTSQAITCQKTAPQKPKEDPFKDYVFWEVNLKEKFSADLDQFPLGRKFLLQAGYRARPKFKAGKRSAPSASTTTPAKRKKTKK

HPV 45 抗原 = biological target: T7, HPV 45 抗原 (Human papillomavirus type 45, UniProt P36741 27-539); assay: as above
T7 sequence: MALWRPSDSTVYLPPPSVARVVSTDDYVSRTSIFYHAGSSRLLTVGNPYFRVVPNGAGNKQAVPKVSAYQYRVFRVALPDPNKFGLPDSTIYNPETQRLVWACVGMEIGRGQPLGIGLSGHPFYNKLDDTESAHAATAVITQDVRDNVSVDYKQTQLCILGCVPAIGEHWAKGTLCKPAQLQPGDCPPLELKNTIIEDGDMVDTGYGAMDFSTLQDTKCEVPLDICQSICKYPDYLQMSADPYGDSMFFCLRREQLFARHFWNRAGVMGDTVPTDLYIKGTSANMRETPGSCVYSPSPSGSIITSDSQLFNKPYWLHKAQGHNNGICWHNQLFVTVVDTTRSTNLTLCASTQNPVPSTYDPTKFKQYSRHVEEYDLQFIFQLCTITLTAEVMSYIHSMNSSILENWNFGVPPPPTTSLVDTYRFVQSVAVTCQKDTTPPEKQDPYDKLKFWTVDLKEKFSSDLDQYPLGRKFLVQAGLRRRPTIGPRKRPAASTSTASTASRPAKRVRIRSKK

HPV6-GFP假病毒 = biological target: T8, HPV6-GFP假病毒 (Human papillomavirus type 6, UniProt P69899 1-500); assay: cell-based or functional assay
T8 sequence: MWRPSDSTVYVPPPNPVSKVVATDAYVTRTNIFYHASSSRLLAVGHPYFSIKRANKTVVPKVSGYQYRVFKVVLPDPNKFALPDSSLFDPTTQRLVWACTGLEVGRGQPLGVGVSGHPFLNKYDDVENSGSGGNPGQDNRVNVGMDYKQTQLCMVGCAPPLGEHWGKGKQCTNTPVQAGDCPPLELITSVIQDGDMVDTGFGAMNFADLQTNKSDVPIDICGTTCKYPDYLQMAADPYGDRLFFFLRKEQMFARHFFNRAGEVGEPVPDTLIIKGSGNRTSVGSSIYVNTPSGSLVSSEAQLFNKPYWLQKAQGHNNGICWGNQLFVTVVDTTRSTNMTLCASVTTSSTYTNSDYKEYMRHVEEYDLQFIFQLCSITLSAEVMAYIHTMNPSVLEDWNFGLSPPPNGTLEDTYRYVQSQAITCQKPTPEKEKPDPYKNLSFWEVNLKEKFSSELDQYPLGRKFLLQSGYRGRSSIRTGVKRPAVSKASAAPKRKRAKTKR

B1: 6H1 鼠源单克隆抗体 (杂交瘤 CGMCC No.45134) (antibody, V domains shown)
VH: EVQLQQSGPEVVKTGASVKISCKASGYSFTGYYMHWVKQSHGKSLEWIGYISCYNGATSYNQKFKGKATFTLDTSSSTAYMQFNSLTSEDSAVYYCAREDEYDGAYYLDYWGQGTTLTVSS
VL: DIVMTQSQKFMSTSVGDRVSVTCKASQNVGTNVAWYQQKPGQSPKTLIYSASYRYSGVPDRFTGSGSGTDFTLTISNVQSEDLAEYFCQQYFRYPLTFGAGTKLELK
notes: Tested as hybridoma supernatant (1.3, 1.4) and as protein G purified ascites antibody (1.6, 3.1); also called 第二单克隆抗体; 6H1 Lot#:2021081604
HPV 16 抗原
  binding result: no binding
HPV 18 抗原
  binding result: no binding
HPV 58 抗原
  binding result: no binding
HPV11 抗原
  binding result: no binding
HPV 33 抗原
  binding result: no binding
HPV31 抗原
  binding result: no binding
HPV 45 抗原
  binding result: no binding
HPV6-GFP假病毒
  假病毒中和实验 (HPV6-GFP假病毒, 293FT细胞, 荧光斑点数): ≥ 5120 fold dilution of supernatant
  假病毒中和实验, 中和活性: 20500 fold dilution (titre)

B2: 1G11 鼠源单克隆抗体 (杂交瘤 CGMCC No.45133) (antibody, V domains shown)
VH: EVKLVESGGGLVKPGGSLKLSCAASGVTFSSYAMSWVRQTPEKRLEWVASITRGGSTYYPDSVKGRFTISRDNARNILYLQMSSLRSEDTAMYYCAREGEDYYGSSYVDYWGQGTTLTVSS
VL: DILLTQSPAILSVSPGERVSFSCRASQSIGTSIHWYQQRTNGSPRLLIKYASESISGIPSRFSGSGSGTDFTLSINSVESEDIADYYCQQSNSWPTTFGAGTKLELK
notes: Tested as hybridoma supernatant (1.3, 1.4) and as protein G purified ascites antibody (1.6, 3.1); also called 第一单克隆抗体; 1G11 Lot#:2021081603
HPV 16 抗原
  binding result: no binding
HPV 18 抗原
  binding result: no binding
HPV 58 抗原
  binding result: no binding
HPV11 抗原
  binding result: no binding
HPV 33 抗原
  binding result: no binding
HPV31 抗原
  binding result: no binding
HPV 45 抗原
  binding result: no binding
HPV6-GFP假病毒
  假病毒中和实验 (HPV6-GFP假病毒, 293FT细胞, 荧光斑点数): ≥ 5120 fold dilution of supernatant
  假病毒中和实验, 中和活性: 20500 fold dilution (titre)
